Measured values: the supplement of paper PMC11316812
± gives the standard deviation of the averaged measurements.

Legend:
hTERT-HMEC = assay: percentage of EdU-negative (G0-arrested) nuclei per well, 72 h; higher = more G0 arrest; settings: reference: sequence is the full UniProt precursor, the tested protein was the secreted form or ectodomain
MCF7 = assay: as above; settings: reference: sequence is the full UniProt precursor, the tested protein was the secreted form or ectodomain
[1] = protein concentration 0.024875 µM
[2] = protein concentration 0.24875 µM
[3] = protein concentration 0.0225 µM
[4] = protein concentration 0.0357143 µM
[5] = protein concentration 0.357143 µM
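Also: secreted proteins added to cultured cells, EdU pulse at the end, nuclei found by Hoechst imaging, EdU status from nuclear versus surrounding ring intensity ratio, PBS as neutral control.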

| Sequence | percentage of EdU-negative (hTERT-HMEC; [3]) | percentage of EdU-negative (hTERT-HMEC; protein concentration 0.225 µM) | percentage of EdU-negative (MCF7; [3]) | percentage of EdU-negative (MCF7; protein concentration 0.225 µM) | further results |
| --- | --- | --- | --- | --- | --- |
| MCRIAGALRTLLPLLAALLQASVEASGEIALCKTGFPEDVYSAVLSKDVHEGQPLLNVKFSNCNGKRKVQYESSEPADFKVDEDGMVYAVRSFPLSSEHAKFLIYAQDKETQEKWQVAVKLSLKPTLTEESVKESAEVEEIVFPRQFSKHSGHLQRQKRDWVIPPINLPENSRGPFPQELVRIRSDRDKNLSLRYSVTGPGADQPPTGIFIINPISGQLSVTKPLDREQIARFHLRAHAVDINGNQVENPIDIVINVIDMNDNRPEFLHQVWNGTVPEGSKPGTYVMTVTAIDADDPNALNGMLRYRIVSQAPSTPSPNMFTINNETGDIITVAAGLDREKVQQYTLIIQATDMEGNPTYGLSNTATAVITVTDVNDNPPEFTAMTFYGEVPENRVDIIVANLTVTDKDQPHTPAWNAVYRISGGDPTGRFAIQTDPNSNDGLVTVVKPIDFETNRMFVLTVAAENQVPLAKGIQHPPQSTATVSVTVIDVNENPYFAPNPKIIRQEEGLHAGTMLTTFTAQDPDRYMQQNIRYTKLSDPANWLKIDPVNGQITTIAVLDRESPNVKNNIYNATFLASDNGIPPMSGTGTLQIYLLDINDNAPQVLPQEAETCETPDPNSINITALDYDIDPNAGPFAFDLPLSPVTIKRNWTITRLNGDFAQLNLKIKFLEAGIYEVPIIITDSGNPPKSNISILRVKVCQCDSNGDCTDVDRIVGAGLGTGAIIAILLCIIILLILVLMFVVWMKRRDKERQAKQLLIDPEDDVRDNILKYDEEGGGEEDQDYDLSQLQQPDTVEPDAIKPVGIRRMDERPIHAEPQYPVRSAAPHPGDIGDFINEGLKAADNDPTAPPYDSLLVFDYEGSGSTAGSLSSLNSSSSGGEQDYDYLNDWGPRFKKLADMYGGGDD | – | – | – | – | percentage of EdU-negative (hTERT-HMEC; [1]): 4.75 ± 0.064%; percentage of EdU-negative (hTERT-HMEC; [2]): 9.56 ± 1.9%; percentage of EdU-negative (MCF7; [1]): 27 ± 2.4%; percentage of EdU-negative (MCF7; [2]): 28 ± 1.6% |
| MCSRGWDSCLALELLLLPLSLLVTSIQGHLVHMTVVSGSNVTLNISESLPENYKQLTWFYTFDQKIVEWDSRKSKYFESKFKGRVRLDPQSGALYISKVQKEDNSTYIMRVLKKTGNEQEWKIKLQVLDPVPKPVIKIEKIEDMDDNCYLKLSCVIPGESVNYTWYGDKRPFPKELQNSVLETTLMPHNYSRCYTCQVSNSVSSKNGTVCLSPPCTLARSFGVEWIASWLVVTVPTILGLLLT | 4.77 ± 0.31% | 10.71 ± 0.089% | 25.8 ± 1.1% | 27.8 ± 2% | – |
| MCSTMSAPTCLAHLPPCFLLLALVLVPSDASGQSSRNDWQVLQPEGPMLVAEGETLLLRCMVVGSCTDGMIKWVKVSTQDQQEIYNFKRGSFPGVMPMIQRTSEPLNCDYSIYIHNVTREHTGTYHCVRFDGLSEHSEMKSDEGTSVLVKGAGDPEPDLWIIQPQELVLGTTGDTVFLNCTVLGDGPPGPIRWFQGAGLSREAIYNFGGISHPKETAVQASNNDFSILLQNVSSEDAGTYYCVKFQRKPNRQYLSGQGTSLKVKAKSTSSKEAEFTSEPATEMSPTGLLVVFAPVVLGLKAITLAALLLALATSRRSPGQEDVKTTGPAGAMNTLAWSKGQE [Q5JXA9] | 5.12 ± 0.92% | 5.14 ± 0.34% | 28 ± 1.8% | 26.5 ± 3.1% | – |
| MCTKTIPVLWGCFLLWNLYVSSSQTIYPGIKARITQRALDYGVQAGMKMIEQMLKEKKLPDLSGSESLEFLKVDYVNYNFSNIKISAFSFPNTSLAFVPGVGIKALTNHGTANISTDWGFESPLFQDTGGADLFLSGVYFTGIIILTRNDFGHPTLKLQDCYAQLSHAHVSFSGELSVLYNSFAEPMEKPILKNLNEMLCPIIASEVKALNANLSTLEVLTKIDNYTLLDYSLISSPEITENYLDLNLKGVFYPLENLTDPPFSPVPFVLPERSNSMLYIGIAEYFFKSASFAHFTAGVFNVTLSTEEISNHFVQNSQGLGNVLSRIAEIYILSQPFMVRIMATEPPIINLQPGNFTLDIPASIMMLTQPKNSTVETIVSMDFVASTSVGLVILGQRLVCSLSLNRFRLALPESNRSNIEVLRFENILSSILHFGVLPLANAKLQQGFPLSNPHKFLFVNSDIEVLEGFLLISTDLKYETSSKQQPSFHVWEGLNLISRQWRGKSAP [Q8NFQ6] | – | – | – | – | percentage of EdU-negative (hTERT-HMEC; [4]): 5.01 ± 0.62%; percentage of EdU-negative (hTERT-HMEC; [5]): 21.7 ± 0.58%; percentage of EdU-negative (MCF7; [4]): 25.1 ± 3.5%; percentage of EdU-negative (MCF7; [5]): 31.5 ± 2.8% |
| MCVGARRLGRGPCAALLLLGLGLSTVTGLHCVGDTYPSNDRCCHECRPGNGMVSRCSRSQNTVCRPCGPGFYNDVVSSKPCKPCTWCNLRSGSERKQLCTATQDTVCRCRAGTQPLDSYKPGVDCAPCPPGHFSPGDNQACKPWTNCTLAGKHTLQPASNSSDAICEDRDPPATQPQETQGPPARPITVQPTEAWPRTSQGPSTRPVEVPGGRAVAAILGLGLVLGLLGPLAILLALYLLRRDQRLPPDAHKPPGGGSFRTPIQEEQADAHSTLAKI | 5.89 ± 1% | 6.68 ± 0.33% | 24.5 ± 3.6% | 26 ± 1.2% | – |
| MCVTYHNGTGYCKCPEGFLGEYCQHRDPCEKNRCQNGGTCVAQAMLGKATCRCASGFTGEDCQYSTSHPCFVSRPCLNGGTCHMLSRDTYECTCQVGFTGKECQWTDACLSHPCANGSTCTTVANQFSCKCLTGFTGQKCETDVNECDIPGHCQHGGTCLNLPGSYQCQCLQGFTGQYCDSLYVPCAPSPCVNGGTCRQTGDFTFECNCLPETVRRGTELWERDREVWNGKEHDEN [Q7Z3S9] | 5.34 ± 0.17% | 5.36 ± 0.21% | 26 ± 0.95% | 24.5 ± 0.49% | – |
